Measured values from patent US11858993B2, “Multi-specific antibodies with affinity for human A33 antigen and DOTA metal complex and uses thereof” (Memorial Sloan Kettering Cancer Center, priority 2015, dated 2024).
Entries after “also recorded” stand apart in the source; their conditions may differ.

Columns and labels:
[1] = tested on: SW1222 tumor; test: PRIT optimization biodistribution (huA33-C825 dose, clearing agent dose), 24 h p.i. of ^177Lu-DOTA-Bn; conditions: for tumor-to-organ ratio, kidney: 24 h p.i.
Procedure: Next, additional biodistribution experiments were performed to optimize the CA dose during PRIT with 0.25 mg (1.19 nmol) as the huA33-C825 dose. Groups of tumor-bearing mice (n=3 to 4 per group) with were injected with huA33-C825, followed 24 h later with either: saline (i.e. vehicle), 2.4% (w/w, with respect to 0.25 mg huA33-C825 dose), 5% (w/w), 10% (w/w), or 25% (w/w) CA doses (0-62.5 μg/mouse). After an additional 4 h, mice were injected with 5.6 MBq of ^177Lu-DOTA-Bn, and sacrificed 24 h later for biodistribution analysis.
Next, ^177Lu-DOTA-Bn dose titration studies were performed using the optimized PRIT doses for huA33-C825 and CA. For ^177Lu-DOTA-Bn dose titration studies, the ^177Lu-activity biodistribution data for tumor and critical select tissues (blood, liver, spleen, and kidneys) was compared between ^177Lu-DOTA-Bn dose groups as both % ID/g and absolute uptake (kBq/g; see FIGS. 4A, 4B). Finally, a single-time point biodistribution experiment at 24 h p.i. of ^131I-trace labeled huA33-C825 (0.39-0.40 MBq with cold huA33-C825 added to 1.19 nmol) was performed in SW1222-tumor bearing mice to estimate the absolute antibody uptake of huA33-C825 in tumor (as pmol/g) during PRIT.
All animal experiments were approved by the Institutional Animal Care and Use Committee of Memorial Sloan Kettering Cancer Center and institutional guidelines for the proper and humane use of animals in research were followed. Athymic nu/nu female mice (6-8 weeks old; Harlan Sprague Dawley) were allowed to acclimate in the vivarium for at least one week. […] All reagents were given intravenously (i.v.) via the lateral tail vein. […] In addition, huA33-C825 was trace radiolabeled with I-131 to estimate tumor uptake during PRIT.

[2] = Stability by SE-HPLC and Biacore after freeze and thaw cycles; assay type: physicochemical; conditions: after multiple freeze and thaw cycles
[3] = tested on: SW1222 s.c. xenografts; test: Three-cycle theranostic PRIT with nanoSPECT/CT dosimetry; assay type: in vivo, Nude mice
Procedure: Nude mice bearing established SW1222 s.c. xenografts (n=20; tumor volume=102±40 mm^3; average±standard deviation (SD)) underwent treatment (n=5-10/group) with either: no treatment (n=5), ^177Lu-DOTA-Bn only (n=5), or a three-cycle PRIT regimen consisting of anti-GPA33 PRIT+55 MBq of ^177Lu-DOTA-Bn (n=10; total: 165 MBq). Serial nanoSPECT/CT imaging was conducted on five randomly selected mice undergoing DPRIT up to 160 hours post-injection of the first cycle of ^177Lu-DOTA-Bn for dosimetry calculations.

[4] = tested on: SW1222 tumor; test: ^177Lu-DOTA-Bn dose titration, tumor uptake and saturation during PRIT; assay type: in vivo, mice
Procedure: FIGS. 4A-4D show exemplary tumor uptake of ^177Lu-DOTA-Bn at 24 hours post injection as a function of radioactivity in the treatment of mice bearing a human colon cancer xenograft (SW1222); (FIG. 4A) uptake of amounts of ^177Lu-DOTA-Bn in various tissues. (FIG. 4B) Uptake of amounts of ^177Lu-DOTA-Bn in SW1222 tumors; (FIG. 4C) activity of ^177Lu-DOTA-Bn in SW1222 tumors and kidneys 24 hours post injection per amount of injected ^177Lu-DOTA-Bn; (FIG. 4D) pmoles of ^177Lu-DOTA-Bn binding in the tumor 24 hours post injection per amount of injected ^177Lu-DOTA-Bn. Saturation was achieved after approximately 40 MBq of injected activity.
As described herein, the present inventors provide an improved multi-step PRIT method in immunocompromised mice bearing s.c. A33-positive human colorectal tumors (SW1222) using a bispecific antibody termed huA33-C825. Such methodology includes i.v. injection of various doses of huA33-C825 and a dextran-based CA, followed with injection of ^177Lu-DOTA-Bn theranostic (i.e., diagnostic and therapeutic) hapten for simultaneous scintigraphic imaging and radioimmunotherapy. The present invention specifically describes biodistribution studies that provide optimum huA33-C825 and CA doses, followed with a series of additional biodistribution studies to determine the tumor uptake as a function of ^177Lu-DOTA-Bn doses (˜2.0-111.0 MBq) to serve as a practical and dosimetric guide for PRIT studies. Also, as described herein, tumors and kidneys were excised at 24 hours post injection of ^177Lu-DOTA-Bn at three different dose levels (11.1, 55.0, and 111.0 MBq) to examine ex vivo the ^177Lu-activity microdistribution via autoradiography, as well as correlate the ^177Lu-activity with the xenograft and tissue morphology via hematoxylin and eosin staining. Further, the estimated absolute SW1222 tumor uptake of huA33-C825 24 h p.i. of 0.25 mg/mouse based on radioactive tracer studies with ^131I-huA33-C825 was ˜90 pmol/g of tumor.

[5] = tested on: A33-positive SW1222 tumor; test: Estimation of absorbed doses and therapeutic index for PRIT; assay type: in vivo, mice; conditions: PRIT 0.25 mg huA33-C825, 62.5 μg CA, ^177Lu-DOTA-Bn; 2-120 h p.i. data
Source text: Exemplary estimates of absorbed doses for tumor and select normal tissue in female athymic mice carrying s.c. A33 positive-colorectal cancer tumors for PRIT including the optimum huA33-C825 and dextran-clearing agent doses are set forth in Table 6.

[6] = Triple-cycle, + 55.5 MBq (×3), 165.0 MBq

Substance: huA33-C825: bispecific antibody: humanized A33 IgG1 with murine C825 anti-DOTA-Bn scFv linked to the light chain C-terminus
- tumor-to-organ ratio, kidney ([1]; 65 μg CA dose level (25% (w/w))): 18.4±13.4
- reduction in ^177Lu-DOTA-Bn tumor uptake compared with PRIT with saline ([1]; mouse, in vivo): ~50%
- tumor-to-organ ratio, blood ([1]; mouse, in vivo): 2.2±0.4
- tumor-to-organ ratio, muscle ([1]; mouse, in vivo): 23.2±3.8
- tumor-to-organ ratio, kidney ([1]; saline (no CA)): 4.9±0.6
- stability by SE-HPLC and Biacore [2]: remained stable
- mice cured ([3]; 3 cycle dosing regimen): 10/10
- Complete Response [3, 6]: 10/10
- Cures at 40 d post-treatment [3, 6]: 10/10
- histopathologic findings of kidney, liver, spleen, and bone/marrow ([3]; mouse, in vivo): no remarkable histopathologic findings
- radiation dose to blood ([3]; mouse, in vivo): 150 rads
- radiation dose to kidney ([3]; mouse, in vivo): 875 rads
- toxicity ([3]; three-cycle PRIT (total 165 MBq)): without detectable toxicity; also recorded: no obvious toxicities
- tumor-free survival at 100 days ([3]; three-cycle PRIT, 55 MBq/cycle (total 165 MBq)): all treated animals
- estimated maximum occupancy (fraction) ([4]; 11 pmol ^177Lu-DOTA-Bn/180 pmol): 0.061
- peak tumor uptake ([4]; PRIT+55.5 ^177Lu-DOTA-Bn per cycle): 3 % ID/g
- injected activity of ^177Lu-DOTA-Bn after which saturation of tumor binding was achieved ([4]; SW1222 tumors, 24 hours post injection): approximately 40 MBq
- ^177Lu-DOTA-Bn bound in tumor used for maximum occupancy ([4]; mouse, in vivo): 11 pmol
- maximum ^177Lu-DOTA-Bn binding capacity ([4]; two ^177Lu-DOTA-Bn per huA33-C825 molecule): 180 pmol/g tumor
- estimated absorbed dose, Blood [5]: 0.9 cGy/MBq
- estimated absorbed dose, Bone [5]: 0.6 cGy/MBq
- estimated absorbed dose, Heart [5]: 1.4 cGy/MBq
- estimated absorbed dose, Kidneys [5]: 5.3 cGy/MBq
- estimated absorbed dose, Large Intestine [5]: 0.8 cGy/MBq
- estimated absorbed dose, Liver [5]: 6.3 cGy/MBq
- estimated absorbed dose, Lung [5]: 1.8 cGy/MBq
- estimated absorbed dose, Muscle [5]: 0.3 cGy/MBq
- estimated absorbed dose, Small Intestine [5]: 0.5 cGy/MBq
- estimated absorbed dose, Spleen [5]: 6.6 cGy/MBq
- estimated absorbed dose, Stomach [5]: 0.6 cGy/MBq
- estimated absorbed dose, Tumor [5]: 65.8 cGy/MBq
